Results taken from the nanobody polyreactivity screen of Harvey et al. (2022).

Experiment: yeast display, Sf9 membrane polyspecificity reagent, FACS + sequencing; frameworks hold sequencing errors
Summary of the method: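 Nanobodies came from a synthetic yeast display library in Saccharomyces cerevisiae BJ5465, induced with galactose for 36–48 hours and stained for 1 hour at 4 °C with 10% biotinylated, detergent-solubilized Sf9 membrane reagent. Cells were enriched on streptavidin microbeads and then FACS-sorted, with low and high (top ~1%) gates set on anti-HA fluorescence for expression and streptavidin fluorescence for reagent binding. Each polyreactivity label reflects the gate a clone came from. Genes were amplified by colony PCR, sequenced by MiSeq 2 × 250 and filtered by CDR length.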

| Sequence | polyreactivity (PSR sort gate) |
| --- | --- |
| QVQLVESWGGLVQAGGSLRLSCAASGFIFQTNVMGWYRQAPGKERELVAAISSGDSTYYADSVKGRFTISRDNAKNTVYLQMNSLKPEDTAVYYCAADVLGTTTTVGGFNYWGQGTQVTVSS | low polyreactivity |
| QVQLVESWGGLVQAGGSLRLSCAASGFTFRGYARGWYRQAPGKERELVAAISRSGGSTNFADSVKGRFTISRDNAKNTVYLQMNSLKPEDTAVYYCAAGWNPYDYWGQGTQVTVSS | high polyreactivity |
| QVQLVESWGGLVQAGGSLRLSCAASGFTYSQYVMGWYIQAPGKERELVASITGNGGSTRYADSVKGRFTISRDNAKNTVYLHMNSLKPEDTAVYYCAARYVYFRWGSFDYWGQGTQVTVSS | high polyreactivity |
| QVQLVESWGGLVQAGGSLRLSCAASGIIFRTYAMGWYRQAPWKERELVAAINSDGSTYYADSVKGRFTISRDNAKNTVYLQMNSLKPEDTAVYYCAATYGRSRKDGYWGQGTQVTVSS | high polyreactivity |
| QVQLVESWGGLVQAGGSLRLSCAASGITFDGNAMGWYRQAPGKERELVAGISGSGGGTYYADSVKGRFTISRDNAKNTVYLHMNSLKPEDTAVYYCAADTSTSHAYDYWGQGTQVTVSS | low polyreactivity |
| QVQLVESWGGLVQAGGSLRLSCAASGITFYVYAMGWYRQAPGKERELVAAISSGSSTYYADSVKGRFTISRDNAKKTVYLQMNSLKPEDTAVYYCAARYRKYLSEYWGQGTQVTVSS | high polyreactivity |
| QVQLVESWGGLVQAGGSLRLSCAASGRIFALYAMGWYRKAPGKERELVASINSRVGSTNYADSVKGRFTISRDNAKNTVYLQMNSLKPEDTAVYYCNARFVYAYQRYYWGQGTQVTVSS | high polyreactivity |
| QVQLVESWGGLVQAGGSLRLSCAASGRIFFVNAMGWYRQAPGKERELVAAITSGGSTSYADSVKGRFTISRDNAKNTVFLQLNSLKAEDTAVYYCAAVFYRRFDYWGQGTQVTVSS | low polyreactivity |
| QVQLVESWGGLVQAGGSLRLSCAASGSIFFPNAMGWYRQAPWKERELVAAIRGGTNTYYADSVKGRFTISRDNAKNTVYLQMNSLKPEDTAVYYCAARRSSHWFTYDYWGQGTQVTVSS | high polyreactivity |
| QVQLVESWGGLVQAGGSLRLSCAASGSIFSDYAMGWYRQARGKERELVAAITQSGGSTYADSVKGRFTISRDNAKNTVYLQMNSLKPDDTAVYYCAADEVPGFGYPPYPWFDYWGQGTQVTVSS | low polyreactivity |
| QVQLVESWGGLVQAGGSLRLSCAASGSNFELYAMGWYRQAPGKERELVASITWSASNTHYADSVKGRFTISRDNAKNTVYLQINSLKTEDTAVYYCAKDVLYGLFDGDSWGQGTQVTVSS | low polyreactivity |
| QVQLVESWGGLVQAGGSLRLSCAASGSTFYAYAMGWYRQAPGKERELVAAIDSGGSTYYADSVKGRFTISRDNAKNTVYLQMNSLIPEDTAVYYCAVRHRYTRAYWGRDYWGQGTQVTVSS | low polyreactivity |
| QVQLVESWGGLVQAGGSLRLSCAASGSTFYWYTMGWYRQAPGKERELVARISSSGSTNYADSVKGRFTISRDNAKNTVYLQMKSLKPEDTAVYYCKKDWIYRGYDYWGQGTQVTVSS | high polyreactivity |
| QVQLVESWGGLVQAGGSLRLSCAASGYTIPDNAMGWYRQAPGKEREWVATITSGASTYYADSVKGRFTSSRDNAKNTVYLQMNSLNPEDTAVYYFARDPWALGGIGSDQKYDYWGQGTQVTVSS | low polyreactivity |
| QVQLVESWRGLVQAGGSLRLSCAASGNTFVYNAMRWYRQAPGKERELVAGITKTGGRTYYADSVKGRFTISRDIAKNTVYLEMNSLKPEDTAVYYCAARPWNDGYYVGRFHMVYWGQGTQVTVSS | low polyreactivity |
| QVQLVETAAGLVQAGGSLRLSCAASGSIYYSYAMGGYRQAPGKERELVAAITDSGDSTYYADSVKGRFTISRDNAKNTVYLQMNSLKPEDTAVYYCAAGFYPYYYWGLGTQVTVSS | low polyreactivity |
| QVQLVETAGGLVQARGSLRLSCAASGFIFRYNAMGWYRQERGKERELVAAINYRGGSTYYADSVKGRFTISRDNAKNTVYLQMNSLKPEDTAVYYCAVLTYRGRFEYWGQGTQVTVSS | high polyreactivity |
| QVQLVETAGRLVQAGGSLRLSSAASGFTFYIYAMGWSRHAPGKERQLVAAISGGGSTYYADSVKGRFTISRDNAKNTVYLQMNSLKPEVTAVYYCAVFPAAIYHRRGTYDYWGQGTQVTVSS | high polyreactivity |
| QVQLVETGAGLVQAGGSLRLSCAPSGNTLGPYAKGWYRQGPGKERELVAAITWSGGITDYADSVKGRLTISRDNAKKTVYLQMNSLKPEDTAVYYCATKLTYTLTSGAYAYDYWGQGTQVTVSS | low polyreactivity |
| QVQLVETGGGIVQAGGILRLSCAYSGSIFYLYAMGWYRQAPGKERELVAAISTSGGRTHYADSVKGRITISRDNAKNTVYLQMNSLKPEDTAVYYCAAPAARPDGGYGYWGQGTQVTVSS | high polyreactivity |
| QVQLVETGGGIVQAGGSLRLSFAASGFTSDYNAMGWYRQAPGKERELVAAISYSGGSTYYADSVKGRFTISRDNAKNTVYLQMNSLKPEDTAVYYCANGRYGRRYYYWGQGTQVTVSS | high polyreactivity |
| QVQLVETGGGIVQAGGSLRLSSAASGRIFASNAMGWYRQAPGKERELVAAIDQCGGSTYYADSVKGRFTISRDNAKNTVYLQMNSLKPEDTAVYYCAADYITAYPRLYNYWGQGTQVTVSS | low polyreactivity |

| Sequence | polyreactivity (PSR sort gate) |
| --- | --- |
| QVQLVETGGGLFQAGGSLRLSCAPCGSIFFSIAMGWYRQAPGKDRELVAAIDSGASSTYADSVKGRFTSSRDHAKNTVYLQINSLKPEDTAVYYFAADYPATGADGYDYWGQVTQVTVSS | low polyreactivity |
| QVQLVETGGGLVQAGGSFRLSCAASGGIFRTYAKGWYRQAPGKERELVAAISRSGGSTYYADSVKGRFTISRDNAKNTVYLQMNSLKPEDTAVYYCAASRPYYPLYGYWGQGTQVTVSS | high polyreactivity |
| QVQLVETGGGLVQAGGSHRLSCAASGSIFSSYVMGWYRQAPGKERELVDAISSGGRTYYADSVKGRFTISRDNAKNTVYLQMNSLKPDETAVYYCAARTRRYPRPGLSPGNYWGQGTQVTVSS | high polyreactivity |
| QVQLVETGGGLVQAGGSLRISCAPSGSIFQRYAMGWYTQAPGKERELVAAITGSGGSTYYADSVMWRFTISRDNAKKTVYLQMNILKPEDSAVYYCAKRYPSRQYTLYNYWGLGTQVTVSS | high polyreactivity |
| QVQLVETGGGLVQAGGSLRITCAASGSIFSYYDMGLNRQAPGNEREMVAAFSWDGGDRTYADSVKGRFTISRDIAKNTVYLQMNSLKPEDSAVYYCAKNTGSYRRVNLDYWGQGTQVTVSS | low polyreactivity |
| QVQLVETGGGLVQAGGSLRLICAASGSIFQGNVMGWYRQAPGKERELVAAISSGGRTYYADSVKGRFTISRDNAKNTVYLQMNSLKPEDTAVYYCAASWLTSYAYIMYYWGQGTQVTVSS | high polyreactivity |
| QVQLVETGGGLVQAGGSLRLRGAASGFTFPWYAMGWYRQAPGKERELVAAISTSGDSTYYADSVKGRFTISRDNAKNTVYLQMNSLKPEDTAVYYCAARVVRGRYGYWGQGTQVTVSS | high polyreactivity |
| QVQLVETGGGLVQAGGSLRLSCAASFRSNTMGGYRQAPRKERELVAAISGSGSRTYYADSVKGRFTISRDNAKKTVYLQMNSLKPEDTAVYYCAALSYRNSEVGTSRGDYWGQGTQVTVSS | high polyreactivity |
| QVQLVETGGGLVQAGGSLRLSCAASGFNLPIYAMRCYRQPPGKEREFVAAITWTGGSTYYADSVKGRFTISRDNAKNTVYLQMNSLKPEDTAVYYCNAEGPSYYYIIYDYWGQGTQVTVSS | high polyreactivity |
| QVQLVETGGGLVQAGGSLRLSCAASGFTFTGNTMGWSRQAPGKERELVAAISQSGSRTYYADSVKGRFTISRDNAKNTVYLQMNSLKPEDTAVYYCNADYSSYWTSYDYWGQGTQVTVSS | high polyreactivity |
| QVQLVETGGGLVQAGGSLRLSCAASGFTFYSYAMGWSRQSPRKEREFVAAGSTYYADSVKGRFTISRDYAKNTVYLQMNSLKPEDTAVYYCAADSYDVSRRYEYEYWVQGTQVTVSS | low polyreactivity |
| QVQLVETGGGLVQAGGSLRLSCAASGGILVGYALGWYRQAPGKERELVAAINYSGGSTNYADSVKGRFTISRDNAKNTVYLQMNSLKPEDTAVYYCAARSTARYGYWGQGTQVTVSS | low polyreactivity |
| QVQLVETGGGLVQAGGSLRLSCAASGIIFATYAMGWYRQAPGKEMELVAAISRRGGYTYYADSVKGRFTISRDNANNTVYLQMNSLKPEDSAVYYCAKSNTLASVAHDYWGQGTQVTVTS | high polyreactivity |
| QVQLVETGGGLVQAGGSLRLSCAASGIIFPFYAMGWYRQAPGKERELVAAITSDGNTNYADSVKGRFTISRDNAKNTVYLQMNSLKPEDTAVYYCNAETQYGVLSWHSTRHDYWGQGTQVTVSS | low polyreactivity |
| QVQLVETGGGLVQAGGSLRLSCAASGITFGRNTMGWYRQAPGKERELVAAIDSGANTYADSVKGRFTISRDNAKNTVYLQMNSLKPEDTAVYYCAVDGGEFSSYGYWGQATQVTVSS | low polyreactivity |
| QVQLVETGGGLVQAGGSLRLSCAASGITFPYYAMGWYRQAPGKERELVDAITIRSGRTYYADSVKGRFTISRDNAKNTFYLQMNSLIPEDTAVYYCAARLSNTYGYWGQGTQVTVSS | high polyreactivity |
| QVQLVETGGGLVQAGGSLRLSCAASGITFYEYALGWYRQAAGKERELVAAISTSGGNTYYAESVKGRFTISRDNAKTTVYLQMNSLKPEDTAVFYCAAQGTASSYSGGDYWGQGTQVTVSS | low polyreactivity |
| QVQLVETGGGLVQAGGSLRLSCAASGNTFHPYAMGWYRQSPGKERELVAAITKSVGSTYYADSVKGRFTLSRDNAKNTVYLQMNSLKPEDTAVFYCARDSLQVFYPYASDDSWGQGTQVTVSS | low polyreactivity |
| QVQLVETGGGLVQAGGSLRLSCAASGRIFGDNAMGWYRQAPGKEREFVATINGSGGSTYYADSVKGRFTISRDNAKNTVYLKMNRLKPEDTAVYYCFVQQNYGYDYWGQGTQVTVSS | low polyreactivity |
| QVQLVETGGGLVQAGGSLRLSCAASGRIFGRYAMGWSRQAPGKERELVASISRGGSTNYADSVKGRFTISRDNAKNTVYLQMNSLKPEDTAVYYCAKSGGVGGADRVGSWGQGTQVTVSS | low polyreactivity |
| QVQLVETGGGLVQAGGSLRLSCAASGRIFGVNARGWYRQAPGKERELVAAIFSGGSTYYADSVKGRFTISRDNAKNTVYVEMNSLKPEDTAVYYCAARFARYDWSMYYWGQGTQVTVSS | low polyreactivity |
